Test results taken from patent US20030088057.

Legend:
histone 4 = histone 4 (UniProt P62803)
rat prolactin = rat prolactin (UniProt P01237)
histone 2B = histone 2B (UniProt P62808)
myelin basic protein = myelin basic protein (UniProt P02687)
Sequence of myelin basic protein (P02687 whole entry): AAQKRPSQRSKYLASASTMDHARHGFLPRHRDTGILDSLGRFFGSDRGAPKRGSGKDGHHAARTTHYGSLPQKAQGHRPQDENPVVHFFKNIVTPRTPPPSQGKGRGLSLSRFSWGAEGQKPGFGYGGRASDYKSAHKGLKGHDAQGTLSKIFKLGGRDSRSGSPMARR

Sequence of rat prolactin (P01237 30-226): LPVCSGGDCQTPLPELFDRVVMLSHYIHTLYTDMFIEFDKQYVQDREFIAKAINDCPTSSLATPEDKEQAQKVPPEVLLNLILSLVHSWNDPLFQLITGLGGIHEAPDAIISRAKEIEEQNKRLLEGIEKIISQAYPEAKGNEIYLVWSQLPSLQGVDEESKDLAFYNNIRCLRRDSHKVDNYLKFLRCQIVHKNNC

In the case of “γ-PAK activated by limited digestion with trypsin”, the 32P incorporated, proteolytically activated (pmol min^-1 µg^-1) (AKRKSAA) is reported as 548, the rel rate (%), proteolytically activated (KKRKSAA = 100) (AKRKSAA) is reported as 181% and the 32P incorporated, proteolytically activated (pmol min^-1 µg^-1) (AAKRSAA) is reported as 0. The rel rate (%), proteolytically activated (KKRKSAA = 100) (AAKRSAA) was 0%, the 32P incorporated, proteolytically activated (pmol min^-1 µg^-1) (AAKKSAA) was 0 and the rel rate (%), proteolytically activated (KKRKSAA = 100) (AAKKSAA) was 0%. For the same substance, the 32P incorporated, proteolytically activated (pmol min^-1 µg^-1) (EKRASAA) was 484, the “rate of phosphorylation relative to AKRASAA” value (EKRASAA) was “increased the rate of phosphorylation relative to AKRASAA (SEQ ID NO:6) to 175 and 113%, respectively” and the rel rate (%), proteolytically activated (KKRKSAA = 100) (EKRASAA) was 160%. The 32P incorporated, proteolytically activated (pmol min^-1 µg^-1) (ARKASAA) was 16, the rel rate (%), proteolytically activated (KKRKSAA = 100) (ARKASAA) was 6% and the 32P incorporated, proteolytically activated (pmol min^-1 µg^-1) (KKRKSAA) was 302. It also gave a rel rate (%), proteolytically activated (KKRKSAA = 100) (KKRKSAA) of 100%, a 32P incorporated, proteolytically activated (pmol min^-1 µg^-1) (AKRASAA) of 426 and a rel rate (%), proteolytically activated (KKRKSAA = 100) (AKRASAA) of 141%. For the same substance, the 32P incorporated, proteolytically activated (pmol min^-1 µg^-1) (AKRASGA) was 324, the rel rate (%), proteolytically activated (KKRKSAA = 100) (AKRASGA) was 107% and the 32P incorporated, proteolytically activated (pmol min^-1 µg^-1) (KKRASAA) was 586. For the same substance, the rel rate (%), proteolytically activated (KKRKSAA = 100) (KKRASAA) was 193%, the 32P incorporated, proteolytically activated (pmol min^-1 µg^-1) (AKRASPA) was 0 and the rel rate (%), proteolytically activated (KKRKSAA = 100) (AKRASPA) was 0%. It also gave a 32P incorporated, proteolytically activated (pmol min^-1 µg^-1) (RKKKSAA) of 0, a rel rate (%), proteolytically activated (KKRKSAA = 100) (RKKKSAA) of 0% and a 32P incorporated, proteolytically activated (pmol min^-1 µg^-1) (KKAASAA) of 0. The rel rate (%), proteolytically activated (KKRKSAA = 100) (KKAASAA) was 0%, the 32P incorporated, proteolytically activated (pmol min^-1 µg^-1) (AKRGSAA) was 381 and the rel rate (%), proteolytically activated (KKRKSAA = 100) (AKRGSAA) was 126%. It also gave a 32P incorporated, proteolytically activated (pmol min^-1 µg^-1) (AKAASAA) of 5, a rel rate (%), proteolytically activated (KKRKSAA = 100) (AKAASAA) of 2% and a 32P incorporated, proteolytically activated (pmol min^-1 µg^-1) (AKRPSAA) of 16. The rel rate (%), proteolytically activated (KKRKSAA = 100) (AKRPSAA) was 6%, the 32P incorporated, proteolytically activated (pmol min^-1 µg^-1) (AAAASKR) was 0 and the rel rate (%), proteolytically activated (KKRKSAA = 100) (AAAASKR) was 0%. For the same substance, the 32P incorporated, proteolytically activated (pmol min^-1 µg^-1) (AKRASEA) was 326, the “rate of phosphorylation relative to AKRASAA” value (AKRASEA) was “a glutamate residue in the +1 position decreased the rate to 71%” and the rel rate (%), proteolytically activated (KKRKSAA = 100) (AKRASEA) was 108%. The 32P incorporated, proteolytically activated (pmol min^-1 µg^-1) (AARASAA) was 169, the “rate of phosphorylation relative to AKRASAA” value (AARASAA) was “significantly slower rate (40 and 56%) as compared to AKRASAA (SEQ ID NO:6) and KKRKSAA (SEQ ID NO:8), respectively” and the rel rate (%), proteolytically activated (KKRKSAA = 100) (AARASAA) was 56%. The 32P incorporated, proteolytically activated (pmol min^-1 µg^-1) (AKRESAA) was 750, the “rate of phosphorylation relative to AKRASAA” value (AKRESAA) was “increased the rate of phosphorylation relative to AKRASAA (SEQ ID NO:6) to 175 and 113%, respectively” and the rel rate (%), proteolytically activated (KKRKSAA = 100) (AKRESAA) was 247%. For the same substance, the 32P incorporated, proteolytically activated (pmol min^-1 µg^-1) (PKRASAA) was 636, the rel rate (%), proteolytically activated (KKRKSAA = 100) (PKRASAA) was 209% and the 32P incorporated, proteolytically activated (pmol min^-1 µg^-1) (ARRASAA) was 391. For the same substance, the rel rate (%), proteolytically activated (KKRKSAA = 100) (ARRASAA) was 129%.
“Protein kinase C purified from bovine brain” showed a 32P incorporated (EKRASAA) of 0.1 pmol/unit, a 32P incorporated, % (AKRASAA = 100) (EKRASAA) of 3% and a 32P incorporated (ARKASAA) of 5.7 pmol/unit. For the same substance, the 32P incorporated, % (AKRASAA = 100) (ARKASAA) was 173%, the 32P incorporated (KKRKSAA) was 11.1 pmol/unit and the 32P incorporated, % (AKRASAA = 100) (KKRKSAA) was 370%. The 32P incorporated (AKRASAA) was 3 pmol/unit, the 32P incorporated, % (AKRASAA = 100) (AKRASAA) was 100% and the 32P incorporated (RKKKSAA) was 3.1 pmol/unit. It also gave a 32P incorporated, % (AKRASAA = 100) (RKKKSAA) of 94%, a 32P incorporated (AKRPSAA) of 3.9 pmol/unit and a 32P incorporated, % (AKRASAA = 100) (AKRPSAA) of 118%. The 32P incorporated (AAAASKR) was 13.3 pmol/unit, the 32P incorporated, % (AKRASAA = 100) (AAAASKR) was 403% and the 32P incorporated (AKRASEA) was 0.2 pmol/unit. The 32P incorporated, % (AKRASAA = 100) (AKRASEA) was 6%, the 32P incorporated (AKRESAA) was 0.4 pmol/unit and the 32P incorporated, % (AKRASAA = 100) (AKRESAA) was 12%. For the same substance, the 32P incorporated (PKRASAA) was 8.7 pmol/unit, the 32P incorporated, % (AKRASAA = 100) (PKRASAA) was 264% and the 32P incorporated (ARRASAA) was 18.8 pmol/unit. It also gave a 32P incorporated, % (AKRASAA = 100) (ARRASAA) of 570%.
With “active γ-PAK (mode of activation not stated for this experiment)” the “rate of phosphorylation (reference)” value (ARRASVA) was “ARRASVA (SEQ ID NO:17) (100%)”, the Km (AKRKSAA) was 480 µM and the Vmax (AKRKSAA) was 2.34 pmol/min. The Vmax/Km (pmol min^-1 mM^-1) (AKRKSAA) was 4.8, the “Vmax/Km relative to AKRASAA” value (AKRKSAA) was “˜2 fold higher than that of AKRASAA” and the 32P incorporated (EKRASAA) was 30.2 pmol/unit. The 32P incorporated, % (AKRASAA = 100) (EKRASAA) was 113%, the Km (EKRASAA) was 890 µM and the “Km relative to AKRASAA” value (EKRASAA) was “the Km was increased by 2-fold when glutamate was in the -4 position”. The Vmax (EKRASAA) was 2.48 pmol/min, the “Vmax relative to AKRASAA” value (EKRASAA) was >2-fold increase in the Vmax when glutamate was in the -4 or +1 position and the Vmax/Km (pmol min^-1 mM^-1) (EKRASAA) was 2.8. The “Vmax/Km relative to AKRASAA” value (EKRASAA) was 1.3-fold with glutamate in the -4 position, the 32P incorporated (ARKASAA) was 0.9 pmol/unit and the 32P incorporated, % (AKRASAA = 100) (ARKASAA) was 3%. For the same substance, the Km (ARKASAA) was greater than 5000 µM, the substrate or not (casein) was “Proteins that are not substrates for γ-PAK, such as casein, histone 1, cdc42, and rac1 (data not shown)” and the 32P incorporated (histone 4) was 8.3 pmol. It also gave a rel rate (%) (histone 2B = 100) (histone 4) of 74%, a 32P incorporated (KKRKSAA) of 19.2 pmol/unit and a 32P incorporated, % (AKRASAA = 100) (KKRKSAA) of 72%. For the same substance, the Km (KKRKSAA) was 610 µM, the Vmax (KKRKSAA) was 1.84 pmol/min and the Vmax/Km (pmol min^-1 mM^-1) (KKRKSAA) was 3. It also gave a 32P incorporated (AKRASAA) of 26.8 pmol/unit, a 32P incorporated, % (AKRASAA = 100) (AKRASAA) of 100% and a Km (AKRASAA) of 460 µM. The Vmax/Km (pmol min^-1 mM^-1) (AKRASAA) was 2.2, the Km (AKRASGA) was 2090 µM and the “Km relative to AKRASAA” value (AKRASGA) was “increased the Km by 4-fold and the Vmax by 3-fold”. For the same substance, the Vmax (AKRASGA) was 3.49 pmol/min, the “Vmax relative to AKRASAA” value (AKRASGA) was “increased the Km by 4-fold and the Vmax by 3-fold” and the Vmax/Km (pmol min^-1 mM^-1) (AKRASGA) was 1.7. It also gave a Km (KKRASAA) of 370 µM, a Vmax (KKRASAA) of 1.59 pmol/min and a Vmax/Km (pmol min^-1 mM^-1) (KKRASAA) of 4.3. The “Vmax/Km relative to AKRASAA” value (KKRASAA) was “˜2 fold higher than that of AKRASAA”, the Km (AKRASPA) was greater than 5000 µM and the 32P incorporated (rat prolactin) was 1.8 pmol. The rel rate (%) (histone 2B = 100) (rat prolactin) was 17%, the 32P incorporated (RKKKSAA) was 0.1 pmol/unit and the 32P incorporated, % (AKRASAA = 100) (RKKKSAA) was 0%. For the same substance, the Km (AKRGSAA) was 3520 µM, the “Km relative to AKRASAA” value (AKRGSAA) was “increased the Km by 7-fold over that of the peptide containing alanine at that position” and the Vmax (AKRGSAA) was 6.44 pmol/min. For the same substance, the “Vmax relative to AKRASAA” value (AKRGSAA) was “the Vmax was increased by 6-fold”, the Vmax/Km (pmol min^-1 mM^-1) (AKRGSAA) was 1.8 and the Km (AKAASAA) was greater than 5000 µM. The substrate or not (cdc42) was “Proteins that are not substrates for γ-PAK, such as casein, histone 1, cdc42, and rac1 (data not shown)”, the 32P incorporated (AKRPSAA) was 1.2 pmol/unit and the 32P incorporated, % (AKRASAA = 100) (AKRPSAA) was 5%. It also gave a Km (AKRPSAA) greater than 5000 µM, a 32P incorporated (histone 2B) of 11 pmol and a rel rate (%) (histone 2B = 100) (histone 2B) of 100%. For the same substance, the 32P incorporated (AAAASKR) was 0 pmol/unit, the 32P incorporated, % (AKRASAA = 100) (AAAASKR) was 0% and the “rate of phosphorylation relative to ARRASVA” value (ARAASVA) was “phosphorylated at a slower rate (40%) compared to ARRASVA (SEQ ID NO:17) (100%)”. The 32P incorporated (AKRASEA) was 18.3 pmol/unit, the 32P incorporated, % (AKRASAA = 100) (AKRASEA) was 68% and the Km (AKRASEA) was 1420 µM. The “Km relative to AKRASAA” value (AKRASEA) was “Glutamate in the -1 or +1 position increased the Km by ˜3-fold”, the Vmax (AKRASEA) was 2.22 pmol/min and the “Vmax relative to AKRASAA” value (AKRASEA) was >2-fold increase in the Vmax when glutamate was in the -4 or +1 position. The Vmax/Km (pmol min^-1 mM^-1) (AKRASEA) was 1.6, the “Vmax/Km relative to AKRASAA” value (AKRASEA) was 0.7-fold when glutamate was in the +1 position of AKRASEA and the Km (AARASAA) was 1880 µM. The Vmax (AARASAA) was 2.27 pmol/min, the Vmax/Km (pmol min^-1 mM^-1) (AARASAA) was 1.2 and the 32P incorporated (AKRESAA) was 47.2 pmol/unit. The 32P incorporated, % (AKRASAA = 100) (AKRESAA) was 176%, the Km (AKRESAA) was 1350 µM and the “Km relative to AKRASAA” value (AKRESAA) was “Glutamate in the -1 or +1 position increased the Km by ˜3-fold”. For the same substance, the Vmax (AKRESAA) was 6.62 pmol/min, the “Vmax relative to AKRASAA” value (AKRESAA) was 6-fold higher than with AKRASAA and the Vmax/Km (pmol min^-1 mM^-1) (AKRESAA) was 4.9. The “Vmax/Km relative to AKRASAA” value (AKRESAA) was “an increase in the overall rate (Vmax/Km) of ˜2.2-fold”, the 32P incorporated (histone 1) was 0 pmol and the rel rate (%) (histone 2B = 100) (histone 1) was 0%. The 32P incorporated (protamine) was 0 pmol, the rel rate (%) (histone 2B = 100) (protamine) was 0% and the 32P incorporated (PKRASAA) was 40.5 pmol/unit. The 32P incorporated, % (AKRASAA = 100) (PKRASAA) was 151%, the Km (PKRASAA) was 240 µM and the “Km relative to AKRASAA” value (PKRASAA) was “decreased the Km by ≈2-fold as compared to AKRASAA”. For the same substance, the Vmax (PKRASAA) was 1.1 pmol/min, the Vmax/Km (pmol min^-1 mM^-1) (PKRASAA) was 4.6 and the “phosphorylation rate (Vmax/Km) relative to AKRASAA” value (PKRASAA) was “an overall effect of a 2-fold increase in the phosphorylation rate”. For the same substance, the 32P incorporated (myelin basic protein) was 4.2 pmol, the rel rate (%) (histone 2B = 100) (myelin basic protein) was 37% and the 32P incorporated (ARRASAA) was 25 pmol/unit. It also gave a 32P incorporated, % (AKRASAA = 100) (ARRASAA) of 93%, a Km (ARRASAA) of 650 µM and a Vmax (ARRASAA) of 2.11 pmol/min. For the same substance, the Vmax/Km (pmol min^-1 mM^-1) (ARRASAA) was 3.2 and the substrate or not (rac1) was “Proteins that are not substrates for γ-PAK, such as casein, histone 1, cdc42, and rac1 (data not shown)”.
